According to patent CN117186235A (SHANGHAI HUAIYUE BIOLOGICAL TECH CO LTD, dated 2023):
Each block holds one binder with its values, some of them ahead of it.

Tests used:
人4-1BB-hFc蛋白 = biological target: T1, 人4-1BB-hFc蛋白 (human, UniProt Q07011 24-186); assay: ELISA, plate coated with human 4-1BB-hFc at 1.0 μg/mL, HRP secondary antibody
T1 construct: extracellular domain; The coated protein of the ELISA is called 人4-1BB-hFc蛋白; also called h4-1BB蛋白; 4-1BB重组蛋白; not shown: human IgG Fc fragment (hFc) of the pCpC vector

[1] = biological target: T2, 人源EGFRvIII (CHO-K1细胞表面表达) (human, UniProt P00533 25-1210); assay: FACS on CHO-K1 cells expressing human EGFRvIII, FITC anti-human IgG Fc
T2 construct: whole, on cells; Stably expressed on CHO-K1 cells; It is a deletion variant of EGFR and not the wild type; also called hEGFRvIII; CHO-K1-hEGFRvIII

人4-1BB (CHO-K1细胞表面表达) = biological target: T3, 人4-1BB (CHO-K1细胞表面表达) (human, UniProt Q07011 24-255); assay: FACS on CHO-K1 cells expressing human 4-1BB, FITC anti-human IgG Fc
T3 construct: whole, on cells; Stably expressed on CHO-K1 cells for FACS; also called h4-1BB; CHO-K1-h4-1BB
T3 sequence (Q07011 24-255): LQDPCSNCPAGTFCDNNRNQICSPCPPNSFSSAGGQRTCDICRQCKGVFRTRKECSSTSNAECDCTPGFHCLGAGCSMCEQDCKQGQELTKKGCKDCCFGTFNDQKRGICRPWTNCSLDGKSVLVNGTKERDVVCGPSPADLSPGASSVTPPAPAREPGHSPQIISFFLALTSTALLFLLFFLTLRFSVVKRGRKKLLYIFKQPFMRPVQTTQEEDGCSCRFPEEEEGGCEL

binding result (人4-1BB-hFc蛋白): binds
B1: 抗4-1BB抗体PE0116全长抗体 (antibody, V domains shown)
VH: QVQLVESGGGVVQPGRSLRLSCAASGLTFSSYGMHWVRQAPGKGLEWVAVIWYDGSNKYYADSVKGRFTISRDNSKNTLYLQMNSLRAEDTAVYYCAREEVLWFGELSYNYYYGMDVWGQGTTVTVSS
VL: DIQMTQSPSSLSASVGDRVTITCRASQGISNYLAWYQQKPGKVPKLLIYAASTLQSGVPSRFSGSGSGTDFTLTISSLQPEDVATYYCQKYNSVPLTFGGGTKVEIK
notes: Fully human antibody from Harbour transgenic mice; the bispecific uses it as IgG4; also called HY0101; PE0016

binding result [1]: binds
binding result (人4-1BB (CHO-K1细胞表面表达)): binds
B2: 抗4-1BB/抗EGFRvIII双特异抗体HY1001007 (bispecific antibody, IgG4)
heavy (part 1 of 2): B1 VH
heavy (part 2 of 2): GGGGSGGGGSGGGGSEIVLTQSPATLSLSPGERATLSCRASSSVSSSYLHWYQQKPGQAPRLLIYSTSNLAAGIPARFSGSGSGTDFTLTISSLEPEDFAVYYCQQYSGYPLTFGGGTKVEIKGGGGSGGGGSGGGGSQVQLVQSGAEVKKPGASVKVSCKASGYTFTDYNMDWVRQAPGQGLEWMGDINPNNADTIYNQKFKGRVTMTRDTSTSTVYMELSSLRSEDTAVYYCARGDYDGYYPVYYAMDYWGQGTTVTVSS
light: B1 VL
notes: IgG-scFv format: PE0116 IgG4 with the 043-1 VL-VH scFv fused to the C-terminus of the heavy chain (PE0116VH-CH-043-1VLVH); also called CH-scFv(043-1VLVH)-IgG4(PE0116); not shown: human IgG4 heavy chain constant region (from the expression vector); human light chain constant region of the expression vector; kappa or lambda not
